Assay results reported in patent US20210230264A1 (JIANGSU QYUNS THERAPEUTICS, published 2021).

Experiments:
[1] = target: T1, human Interleukin-17A (hIL-17A) (human, UniProt Q16552 24-154); test: cell-based or functional assay
[2] = target: T1, human Interleukin-17A (hIL-17A); test: SPR, Biacore T200, 25 C, antibody captured on Protein A CM5 chip, hIL-17A in flow, 1:1 model, mean of two runs
Experimental: The Protein A was chemically coupled to the CM5 chip, and an appropriate amount of antibody was immobilized by the capture method, so that the Rmax was less than 50 RU, and the capture flow rate was 10 μl/min. The antigen was gradually diluted, and the flow rate of the instrument was switched to 30 μl/min. The diluted antigen was flowed through the reference channel and the channel of immobilized antibody in sequence from low to high concentration, and the running buffer was flowed through as a negative control. After each binding and dissociation was completed, the chip was regenerated with glycine, pH1.5. Fitting was performed with the build-in software in the instrument according to a 1:1 binding model. The association rate constant kₐ, the dissociation rate constant kd, and the equilibrium dissociation constant KD values of the antibody were calculated.

T1 sequence (Q16552 24-154): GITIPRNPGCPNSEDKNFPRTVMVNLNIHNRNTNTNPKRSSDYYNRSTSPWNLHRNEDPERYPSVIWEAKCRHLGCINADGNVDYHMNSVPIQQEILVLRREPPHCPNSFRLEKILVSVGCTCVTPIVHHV

| IC50 (read off the curve) [1] [µg/mL] | Kd [2] [nM] | koff [2] [s⁻¹] | kon [2] [M⁻¹ s⁻¹] | Binder |
| --- | --- | --- | --- | --- |
| ~0.02 | 0.00707 | – | – | anti-human interleukin 17A monoclonal antibody QX002N (antibody, human IgG1, kappa, V domains shown, Claim 27 joins 7/8 with 10/11; Expressed in ExpiCHO-S cells and purified on Protein A; also called 37-5; humanized clone 37 #) VH: EVQLQESGPGLVKPSETLSLTCTVSGIDLSLFYMSWIRQPPGKGLEWIGTIHEVASSYYASWAKGRVTISKDTSKNQFSLKLSSVTAADTAVYYCARETYSSRYPYPNIWGQGTLVTVSS VL: DIQMTQSPSSVSASVGDRVTITCQASQNIGGSLAWYQQKPGKAPKLLIYGASSLASGVPSRFSGSGSGTDFTLTISSLQPEDFATYYCQSYNTISTYGLAFGGGTKVEIKR |
| – | 0.0154 | 2.58e-05 | 1.7e+06 | Ixekizumab (IXE) (antibody, V domains shown) VH: QVQLVQSGAEVKKPGSSVKVSCKASGYSFTDYHIHWVRQAPGQGLEWMGVINPMYGTTDYNQRFKGRVTITADESTSTAYMELSSLRSEDTAVYYCARYDYFTGTGVYWGQGTLVTVSS VL: DIVMTQTPLSLSVTPGQPASISCRSSRSLVHSRGNTYLHWYLQKPGQSPQLLIYKVSNRFIGVPDRFSGSGSGTDFTLKISRVEAEDVGVYYCSQSTHLPFTFGQGTKLEIKR |
